Here are results for one molecule from patent US5656591A, “Antimicrobial agents and method for treating products therewith” (Morinaga Milk Industry Co., Ltd., priority 1992, dated 1997).

Experiment [1] deals with Staphylococcus aureus (JCM-2151). The experiment is described as follows: Viability assay (survival rate) in cow's milk medium. The class given is cell-based. The procedure: The colonies grown on the culture medium were scraped by a platinum loop and cultivated in 1% peptone (by Difco Company) culture medium for several hours at 37° C., and the resultant microbial culture at logarithmic phase was used as the preculture in a serial concentration of 3×10^8 /ml.
A quantity of the resultant solutions of the samples were selectively mixed with a quantity of the basal medium, thereby test media for the respective tests were prepared in the combinations and eventual concentrations as specified in the respective tests.
Utilizing the samples (5), (7), (8), (9), (10), (14), (15), (17), (18) and (19), test media were prepared in the same manner as in the preparation of the test media containing sample (3) and the like, except that the aqueous solution (in the cases of samples (5) and (7), aqueous suspensions) were not dealt with sterilization filters.
To 2 ml aliquots of test media prepared in (3-1) (supra), […] aliquots of the preculture of Staphylococcus aureus prepared in (1) (2. Method, supra) were added, then incubated at 37° C. for 1 hour, 200 μl aliquots of the resultant cultures were taken out and diluted with 1% peptone solution in a series of 10^n respectively, 110 μl aliquots of the resultant dilution series were spread onto plates of standard agar culture medium, and after incubation at 37° C. for 24 hours the number of colonies grown on the plates were counted (Test. Colony Count).
Control coloney counts 1 were determined in the same manner as in the determination of the test coloney counts, except that […] aliquots of the preculture of Staphylococcus aureus prepared in (1) (2. Method, supra) were added to 2 ml aliquots of the respective control media 1 prepared in (3-2) (supra). Furthermore, control coloney counts 2 were determined in the same manner as in the determination of the test coloney counts, except that […] aliquots of the preculture of Staphylococcus aureus prepared in (1) (supra) were added to 2 ml aliquots of the respective control media 1 prepared in (3-2) (supra).
Survival rate 1=(Test Colony Count/Control Colony Count 1)×100
Survival rate 2=(Control Colony Count 2/Control Colony Count 1)×100
(Note: In the tables shown hereinafter, vulues of survival rate 2 are indicated in the row where the concentration of antimicrobial peptide or lactoferrin hydrolysate is 0.)

Experiment [2] deals with microorganisms belonging to the genera of Staphylococcus and Enterococcus. As to conditions: Journal of Dairy Science, Vol. 67, page 606, 1984; cited from earlier work.

B1: lactoferrin: Bovine lactoferrin on the market (by Sigma Company) (protein)
chain: APRKNVRWCTISQPEWFKCRRWQWRMKKLGAPSITCVRRAFALECIRAIAEKKADAVTLDGGMVFEAGRDPYKLRPVAAEIYGTKESPQTHYYAVAVVKKGSNFQLDQLQGRKSCHTGLGRSAGWIIPMGILRPYLSWTESLEPLQGAVAKFFSASCVPCIDRQAYPNLCQLCKGEGENQCACSSREPYFGYSGAFKCLQDGAGDVAFVKETTVFENLPEKADRDQYELLCLNNSRAPVDAFKECHLAQVPSHAVVARSVDGKEDLIWKLLSKAQEKFGKNKSRSFQLFGSPPGQRDLLFKDSALGFLRIPSKVDSALYLGSRYLTTLKNLRETAEEVKARYTRVVWCAVGPEEQKKCQQWSQQSGQNVTCATASTTDDCIVLVLKGEADALNLDGGYIYTAGKCGLVPVLAENRKSSKHSSLDCVLRPTEGYLAVAVVKKANEGLTWNSLKDKKSCHTAVDRTAGWNIPMGLIVNQTGSCAFDEFFSQSCAPGADPKSRLCALCAGDDQGLDKCVPNSKEKYYGYTGAFRCLAEDVGDVAFVKNDTVWENTNGESTADWAKNLNREDFRLLCLDGTRKPVTEAQSCHLAVAPNHAVVSRSDRAAHVKQVLLHQQALFGKNGKNCPDKFCLFKSETKNLLFNDNTECLAKLGGRPTYEEYLGTEYVTAIANLKKCSTSPLLEACAFLTR
On to B1, for which the survival rate is 150 in experiment [1] (Test 1: peptide 0, lactoferrin 0.1 mg/ml); 150 in experiment [1] (Test 1: peptide 0, lactoferrin 1 mg/ml); 104 in experiment [1] (Test 1: peptide 0, lactoferrin 10 mg/ml); 105% in experiment [1] (Test 20: peptide 0, 1-monolauroyl-rac-glycerol 0, bovine lactoferrin 1 mg/ml). Besides, the “antimicrobial activity of the compound added without antimicrobial peptide or lactoferrin hydrolysate (in words)” value in experiment [1] (compound alone) is listed as “no antimicrobial activity was observed”. Further, the “effect of the coexisting compound on the antimicrobial activity of the antimicrobial peptide (in words)” value in experiment [1] (with antimicrobial peptide Seq. ID No. 26) is given as “augments the antimicrobial activity of the peptide”; in experiment [1] (with antimicrobial peptide Seq. ID No. 27), “further augments the antimicrobial activity of the antimicrobial peptides”. In experiment [2], the “concentration in which lactoferrin exhibits antimicrobial activity” value is 0.5 to 80 mg/mL.
